These results are taken from publication PMC6318295, “Plant HP1 protein ADCP1 links multivalent H3K9 methylation readout to heterochromatin formation” (Cell Research, 2018).

For experiment [1], the target named is ADCP1 Agenet 3/4 domain (amino acids 201-355) (Arabidopsis thaliana) (UniProt Q500V5). The experiment can be described thus: ITC; H3 peptides (usually 1 mM) titrated into ADCP1 tandem Agenet domains (0.05-0.1 mM); 25 °C; 100 mM NaCl, 20 mM Tris-HCl, pH 7.5; MicroCal PEAQ-ITC; 'One Set of Sites' fitting model.
Chain of ADCP1 Agenet 3/4 domain (amino acids 201-355) (Arabidopsis thaliana) (Q500V5 201-355): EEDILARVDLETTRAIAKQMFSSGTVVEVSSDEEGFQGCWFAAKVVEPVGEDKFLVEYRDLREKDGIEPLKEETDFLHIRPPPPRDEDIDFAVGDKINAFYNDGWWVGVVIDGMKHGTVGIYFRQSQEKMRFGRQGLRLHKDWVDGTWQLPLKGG
In experiment [2] the target is ADCP1 Agenet 1/2 domain (amino acids 31-177) (Arabidopsis thaliana) (UniProt Q500V5). The description is as above.
Experiment [3] deals with ADCP1 (Agenet Domain Containing Protein 1) Agenet 1/2, 31-177 (UniProt Q500V5). In words: ITC. To be noted: reference: H3K9me2 peptide; sites S10.
Experiment [4] deals with ADCP1 (Agenet Domain Containing Protein 1) Agenet 3/4, 201-355 (UniProt Q500V5). The experiment can be described thus: ITC. To be noted: reference: H3K9me2 peptide; sites S10.
The target of experiment [5] is ADCP1 (Agenet Domain Containing Protein 1) Agenet 5/6, 376-517 (UniProt Q500V5). The experiment can be described thus: ITC. To be noted: reference: H3K9me2 peptide; sites S10.
For experiment [6], the target named is T1, ADCP1 Agenet 1/2 domain (amino acids 31-177) (Arabidopsis, UniProt Q500V5 31-177).
T1 chain: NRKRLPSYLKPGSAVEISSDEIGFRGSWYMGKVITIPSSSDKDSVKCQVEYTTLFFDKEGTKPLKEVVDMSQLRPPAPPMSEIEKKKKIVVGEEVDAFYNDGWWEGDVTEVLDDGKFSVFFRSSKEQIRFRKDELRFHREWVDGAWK
In words: ITC.

The next experiment concerns ADCP1-H3K9me3 NA. The experiment can be described thus: Aurora B treatment of phase-separated ADCP1-H3K9me3 NA. The experiment is classed as biochemical. To be noted: kinase 5 µM, ATP 50 µM, 30 °C, 5 h. How it is done: (§1) Aurora B kinase, ATP (NEB, P0756S) and 10 × kinase buffer (CST, 9802S) were added to the nucleosome array. The final concentration of kinase was 5 µM and ATP was 50 µM. The mixture was incubated at 30 °C for 5 h. The reaction product was detected by the ph-H3S10 antibody (Abcam, ab5176).
(§2) ADCP1 Agenet domain 1-4 (1-355 aa) and Agenet 3-6 (201–517 aa) proteins were stored in 20 mM HepesNa, pH 7.4, 150 mM NaCl. A 1:1 molar ratio of Alex 488 (Invitrogen, A10254, dissolved in DMSO) was added into ADCP1 and the mixture was incubated at room temperature for 1 h. The excess dye was removed using MicroSpin G-50 column (GE Healthcare, 27533001). DAPI was added to native/K9me3/K9me3S10A 12× nucleosome array to label the DNA. Protein and nucleosome array were diluted to a proper concentration. Equal volume of nucleosome array and ADCP1 were mixed in a 384 well glass bottom plate (Cellvis, P384-1.5H-N). For Fig. 6a, the concentrations of three proteins were 30 μM. […] The sample volume in each well was 5–10 μL. After 1 h incubation at room temperature, images were captured by Nikon A1RMP confocal microscope with 100 × oil objective. For FRAP analysis, mean fluorescence intensities from five regions of interests (ROIs) of time-lapse images were computed. ROI-1 was the bleached droplet, ROI-2 was a non-bleached droplet, ROI-3 was a background region. NIS-element software was used for data analysis.

Experiment [7] deals with H3(S10A)K9me3 NA with ADCP1. In words: Aurora B treatment of phase-separated ADCP1-H3(S10A)K9me3 NA. The following applies: kinase 5 µM, ATP 50 µM, 30 °C, 5 h. Format: biochemical. On the procedure: as §1, §2

As to H3(1-15)K4me3 peptide, the Ka is 24000 M⁻¹ in experiment [1] and 19000 M⁻¹ in experiment [2]. Besides, the stoichiometry N in experiment [1] came to 0.971; in experiment [2], 1.12.
In the case of H3(1-15)K9me2 peptide, in experiment [2], the Ka was determined as 333000 M⁻¹ and the stoichiometry N stood at 1.01.
Turning to H3(1-15)K9me2S10ph peptide, in experiment [1], the Ka came out at 10000 M⁻¹ and the stoichiometry N amounted to 1.
“histone H3 (synthetic H3 peptides) 1-15 (from UniProt P59226) H3K9me2S10ph peptide”: the “binding against the reference” value in experiment [3], in experiment [4] and in experiment [5] was “weaker” in each case.

B1: H3K9me3S10ph (peptide)
chain: ARTKQTARKSTGGKA
modifications: trimethyl-Lys9, phospho-Ser10 (mature H3 numbering; precursor 10 and 11). Taken as the ITC peptide of Fig. 1e with limits 1-15 from the paper's other H3K9me peptides; the text uses the same name for the Aurora B-treated MLA nucleosome array, which is a different molecule
Regarding B1, in experiment [6], the equilibrium dissociation constant (Kd) was determined as 42.5 µM.

B2: Aurora B: human Aurora B kinase, causes S10 phosphorylation (protein, UniProt Q96GD4 1-344, looked up)
Aurora kinase B: MAQKENSYPWPYGRQTAPSGLSTLPQRVLRKEPVTPSALVLMSRSNVQPTAAPGQKVMENSSGTPDILTRHFTIDDFEIGRPLGKGKFGNVYLAREKKSHFIVALKVLFKSQIEKEGVEHQLRREIEIQAHLHHPNILRLYNYFYDRRRIYLILEYAPRGELYKELQKSCTFDEQRTATIMEELADALMYCHGKKVIHRDIKPENLLLGLKGELKIADFGWSVHAPSLRRKTMCGTLDYLPPEMIEGRMHNEKVDLWCIGVLCYELLVGNPPFESASHNETYRRIVKVDLKFPASVPMGAQDLISKLLRHNPSERLPLAQVSAHPWVRANSRRVLPPSALQSVA
Consider B2, for which the “dissolution of phase transition by Aurora B, H3K9me3 NA” value with ADCP1-H3K9me3 NA is “phase transition of the former but not the latter can be dissolved by Aurora B treatment”. Besides, the “dissolution of phase transition by Aurora B, H3(S10A)K9me3 NA” value in experiment [7] was “not the latter can be dissolved by Aurora B treatment”.
